A short description of this data set: label from the status in PepcDB records.
For “MSGGPVKTPFLSFIIPAYNEEQRLPSYLERVIGFFAGQSYSFEIVVVDDGSSDGTAALVKALMAQHSCLRLEALDRNRGKGFAVKTGMSAAKGQLRVFADADGATPVEEIRRLLDAREQGADIAIGSRAMRSDECIVQGRVHRKIMGTVFNGLIRALAVRGIHDSQCGFKLFTASAAEDIFPRQRITGFGFDVELLFLARRLGYVVVEVPVNWSDVEGTKVRLVRDSFRMLGEVLRIRFTNLTGGYGDIPGKTLEHHHHHH”, the protein production result was “failed”.
Take “MNLPCQWPRSQQADKHGRFPINRDQRRAAGAGTRSGAGGQPPLGLDQYVQQALQLHQAGRRQEAESIYRQVLARQPKHAAAAHFLGLLLHQTGRSEEGLDLIERSVSLQPTNADFLNNFGTVMRDLGRVAAAIDFFRGAVDLRPEQLAARDNLGSSLKQLGRFEEAEDIYRGTVARNPFHVRARIGLAETLQEAGRLDEALAVFRESLTIRPKDADLLHGLGVGMMEKGKLDEAADLFRQALAVNPGMATAWLMLTQVKRQKERDAELAGMEAQHAKAPQDSLARMQLSFGLGKANDDLKDYNRAFDYFAEGNAIRRKGIDYDPVRTREEFAAMKTVFDAGFFERHRPSPISDDAPIFVVGMPRSGTTLVEQIIASHPQVYGAGELSILKKAVGKQFPTTMPGGFPWGVADTDDADFAEAGQAYLDMLHARYPHLSHVTDKMPGNFLLVGFIHMMMPKAKIIHCTRDAAATCLSIYKVHFRGDSHRYGYDLGELADFHNLYTDIMAHWHKVLPGVVHDVRYEDFVADQEGQSRALIDYLGLPWDDAVLSFHATDRPVRTASAAQVRQPMYQGSVDLWKRYGDRLKPLLDKLD”: the protein production entry is on record as “failed”.
Then “MNSYDFITALVPIILIIIGLGIIKKPAYYVIPISLIATVAIVIFYKNLGIVNTSLAMLEGALMGIWPIATVIIAAIFTYKMSEDQKDIETIKNILSNVSSDRRIIVLLVAWGFGNFLEGVAGYGTAVAIPVSILIAMGFEPFFACLICLIMNTSSTAYGSVGIPITSLAQATNLDVNIVSSEIAFQLILPTLTIPFVLVILTGGGIKGLKGVFLLTLLSGMSMAISQVFISKTLGPELPAILGSILSMTITIVYARFFGNKETTERQSKNTISLSKGIIACSPYILIVTFIVLVSPLFNKIHEYLKTFQSTISIYPEANPLHFKWIISPGFLIILATTISYSIRGVPMLKQLKIFTLTLKKMALSSFIIICIVAISRLMTHSGMIRDLANGISIITGKFGPLFSPLIGAIGTFLTGSDTVSNVLFGPLQTQMAENIGANPYWLAAANTTGATGGKMISPQNITIATTTAGLIGQEGKLLSKTIIYALYYILATGLLVYLV”, with “failed”.
Then “MTITTERGSQQYAYTDLPRLMGLMTGDEKHGPAATSTLDALWVLYDRVLRVAPERVDEPGRDRFLLSKGHGPMAYYAVLAAKGFLPVDWLPDFGSYDSPLGHHPDRVLVPGAEIGSGSLGHGLPIAVGTALGLRAQGLGEPRVWVLTGDAELDEGSNHEAIAYAGAAGLERLHTIVIDNSSATHALTGGIAARFEAAGWATTTVDGHDHEALHAAFTAPHEGRPLAVVARVRPKDA”, with “failed”; and “MTSTTTAPLVGLVMGSDSDWPVMEAAADALAEFGIPFEADVVSAHRMPTEMIRYGQTAHERGLRVIIAGAGGAAHLPGMLASVTPLPVIGVPVPLKTLDGMDSLLSIVQMPAGVPVATVSIAGARNAGLLAVRILASGTDDLASKLRADLLTFAQELNDVATKKGENLRHKVEEVFSPANASARSSR”, with “failed”.
Then “MSLKLTPEAAGTFAIAPTPFHDDGKIDDVSIDRLTDFYAEVGCEGVTVLGILGEAPKLDAAEAEAVATRFIKRAKSMQVIVGVSAPGFAAMRRLARLSMDAGAAGVMIAPPPSLRTDEQITTYFRQATEAIGDDVPWVLQDYPLTLSVVMTPKVIRQIVMDSASCVMLKHEDWPGLEKITTLRGFQKDGSLRPLSILCGNGGLFLDFEMERGADGAMTGYCFPDMLVDVVKLSKAGQRDLAHNLFDAHLPLIRYEHQQGVGLSVRKYVLKKRGLLSSSAQRKPGASLTDTAREEVDYLLSRLARVEGHHHHHH”, with “not failed”; and “IVRDSQRHKQLPVDRRKSQMEEVQDELIHRLTIGRSAAQKKFHVPRQNVPVINITYDSTPEDVKTWLQSKGFNPVTVNSLGVLNGAQLFSLNKDELRTVCPEGARVYSQITVQKAALEDSSGSSELQEIMRRRQEKISAAASDSGVESFDEGSSH”, with “failed”.
On to “MKPKSMKEKLVKDMMSILNLRIKMIDVNGLLKELDDALDKVVAKKEPESFLKPIISPIEDYQKSVRQIQAQFTDAPKFNEEGAYPQFLSCGLLEIKGKNGASMEFCLPKVYPFPPKSLYIEHEKDGQFLREMLMRLLSSAPLVQLEVILVDALSLGGIFNLARRLLHKDNDFIYQQRILTESKEIEEALKHLYEYLKVNLQEKLAGYKDFAHYNEEKKDRLPLKALFLSGVDALSQNALYYLEKIMRFGSKNGVLSFVNLESEKNNKSTEDLKRYAECFKDRTSFERLKYLNIEVINDHGIQSKHMKDFADKIKAYYEKKKAVKRELKDLQKDEKFWTESSQFKVSVPVGWDINHKEVCFEIGNEQNHTLICGRSGSGKSNFLHVLIQNLAFYYAPNEVQLFLLDYKEGVEFNAYTDPNILEHARLVSVASSVGYGMSFLNWLCKEMQERANLFKQFNVKDLSDYRKHGEIPRLIVVIDEFQVLFSDNKSTKAVEGHLNTLLKKGRSYGVHLILATQTMRGTDINRSIMAQIANRIALSMDAEDSNSILGDDAACELVRPEGIFNNNGGHQKHHTKMSIPKAPDDFKPFIKKIHRDFNQRNLVPVEHKIYNGEKPLEMPNTLKANEMRLHLGKEADYEQKDLMVGFENSESHLLVVSQDLSARIALMKLFAQNFKTANKELLFYNAEKRLARELDELKKHHITPMQGPLGSVLDTAMNPNSVLVIDNLNEAKELHDKIGVEKLRSFLEKATDNEQYCIIFAHDLKQIQANYDLSKLKELLNNHFKQRLAFRCNGENLSAIKKDLPLLTNELNALFVELSKDSHTEFRPFSL”, for which the protein production result is on record as “failed”.
In the case of “MIEEERNNYSVFHGLWTLASRELKKWYKAPVILLLSLIQPIFWIGIFGKAMNLGSIFTETTFNIPGLTIPKQVLDQIGLEILKQTFGTTDYFSFLAAGMLSFIVLFTSMQSGMSIVWDRRLGVLDRILTTPVPRGNIIIGKVLSAVIRSLVQATIVLVVAVLLGMTFAPEINPLDFLGVYAALFLMSFGLSSLFLMLALRATSWESQMAIMNLLNLPLLFTSNAFYPVKSMPYWLKPVAYINPLTYSNGVARGMLLGISTNLAIDFLYLGLFAIILSTIGIVLSWKYLSK” it was “failed”; in that of “SLDVQRVGKAGLHRVDSKKQQTAAGVSFSEVMGKQRDEKAYERLQALMSKIDDQGKLLSETRTIEELRKYKELVKEFVGDAVELGLRLEERRGFNRRGRTKIYKIVKEVDRKLLDLTDAVLAKEKKGLDILNMVGEIKGLLINIYA”, “not failed”.
Then “MPSSRRVRSRCCAFGITKRFACIRPACQRARMDAQMTNFETRLRENAAKTEALLGHLLSGEARADEITRPQNLLEAMRHGVLNGGKRLRPFLVIESVALLGGDAEAGLHVGAALECLHCYSLVHDDLPAMDDDDLRRGQPTVHRKFDEATAILAGDSLLTLAFDIIASDDNPLAAERKAALVISLARAAGIGGMAGGQALDLAAEKKAPDEDGIITLQAMKTGALLRFACEAGAIIAGSNQAERQRLRLFGEKIGLSFQLADDLLDLTADAATMGKATGKDAARGKGTLVALRGEAWAREKLQE”, with “not failed”; and “MKQVNVDVAVIGGGTAGLGSYRAAKAHTDSVVMIEGGPYGTTCARVGCMPSKLLIAAAESVHQIEKAPKFGIHPQGEIVINGREVMERVKFERDRFVGFVLEGVDEIPAEDKISGYAKFLDDNTLQVDDHTIINAKRIVIATGSRPAYPAVWNELGDRLIINDDVFNWDDLPKSVAVFGPGVIGLELGQALHRLGVETKLFGLGGQVGPVTDPEVMAYANKAFNEEFYLDADVKVESMKRITTESGEERVEIQFINKQGELETNIVEYVLAATGRRPNTDKLGLENTSIELDERGVPTADFYTLQTSLPTVFIAGDASNQLPLLHEAADQARIAGDNAGRFPEIRAGLRRSKISAVFSDPQIAMVGETYKEITTRLGTCGCFATGEVSFENQGRSRVMLRNKGILHVYGEQGTGRFLGAEMMGPNAEHLAHLLAWAHQNKMTVSEMLDMPFYHPVIEEGVRTALRDLNAKLHLGPEMIKHCMDCGPGC”, with “failed”; and “MSFVKKTKNFFGLDGEADPYMEHSDAYYDEPRYEPAPAYSAPRYEEPIYASARPRAARPMPTHIVPVRLLTYSDAAIKVGDPFRDGDAVVFDMSDMHKGEAKRIIDFAAGLCFALRGQMRKLDGRIFALVPESASVDENDLKHAAGLIHLEHHHHHH”, with “failed”.
In the case of “MSRKYFVGGNFKCNGTKESLKTLIDSFKQVESSNSEVYVFPTSLHISLVKEFFGNDHPGVFKIGSQNISCTGNGAFTGEVSCEMLKDMDVDCSLVGHSERRQYYSETDQIVNNKVKKGLENGLKIVLCIGESLSERETGKTNDVIQKQLTEALKDVSDLSNLVIAYEPIWAIGTGVVATPGQAQEAHAFIREYVTRMYNPQVSSNLRIIYGGSVTPDNCNELIKCADIDGFLVGGASLKPTFAKIIESAQ”, the protein production result is “not failed”.
For the sequence “MSEVQITFRKAREQDLMTYFNWANDEVTRKNSFGTNKIDLKTHTEWFLKKISSPDSLLLVFEDAAKIPVGQVRIECGEEEAVIGISIDSAFRGKSLSAFMIDSACTEYFRNFTKPIAAHIKATNTASVKAFEKAGFILKEEYTVDQELRFILLRQHV”, the protein production entry was “failed”.
In the case of “MIMRQLAHFKFFDTLSKKMVAGFIILILIGTVLLSLPWATPANVHTSLIDVLFTSASATCITGLTVVNTAAHWTTFGQLVILVLSEVGALGYMTFAVLLFNIMRRQIGLSTQLMVKASLNLERLSDTKSVMKYVVGLSLLFQLGGLGLLAIDFVPRFGWRHGLYVSLYHAVMSFCNAGFDVFGDSLQGFRNDPYVLTVTMILIIAGGLGFLVWRDVLLYHTRKRLTLNSKLTLLTTFSLFVIGFVLLLITERDLELLPTGMSWVNRTINTLFLSVTPRTAGLITMPTQGLQAGSLLVIMILMFVGGTPGSTAGGIKTTTFGVLMFQSIAQLRGRRDVEFSHRRFSQENINRALMLIFLASIVLTVATLILTQTEKIPKGFGLEYVLFEVLSAFGTVGLSLGLTPNLTLIGKIVIMMLMFIGRVGIFTSLYALSRRQARVNLIRYPAENILIG” it was “failed”; in that of “MSLTGTDFHVGIVGLGSMGMGAARSCLRAGLSTWGADLNPQACANLLAEGACGAAASAREFAGVVDALVILVVNAAQVRQVLFGEDGVAHLMKPGSAVMVSSTISSADAQEIAAALTALNLNMLDAPVSGGAVKAAQGEMTVMASGSEAAFTRLKPVLDAVASNVYRISDTPGAGSTVKIIHQLLAGVHIAAAAEAMALAARAGIPLDVMYDVVTHAAGNSWMFENRMQHVVDGDYTPRSAVDIFVKDLGLVADTAKALRFPLPLASTALNMFTSASNAGYGKEDDSAVIKIFSGEGHHHHHH”, “not failed”; in that of “MKAVLFDLDGTLIDTAADFIRIIQEMCREEQREVVDADLIRTQVSEGARAMVKLVYPELAVDDAVFLTHRQRFLDRYEQNIVVDTDLFKGMYPLLEMLESQQIPWGIVTNKPRHLTELLLERLNLTERCAVLVCPEDVQRTKPDPEPMFLAATQLHIAPEQIIYVGDHPRDIDAGRAAHMYTILAAYGYLPLQHKDNLNAWQADVIVQHVTELQKILSQQLHITPLNQDTMLQTS”, “failed”.
In the case of “MNQPASAYFMDERKDPVETHTLSVLVQNEPGVLARVIGLFSGRGYNIESLTVSETEAQKHVSRITIVTTGTLAVIQQIKHQLDRMVPVYRVVDMTLSGRSIERELAMVKLRGVGEHRVEALRLAEAFRARVIDATIESFVFEITGNSAKINQFIDLMRPLGLVEVSRTGVAAIGRGPEGM”, the protein production result is reported as “failed”.

Source of the values: a protein production outcome set (Wang et al. 2014).
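Further: failed if final PepcDB status was selected cloned or expressed and not failed if soluble or beyond.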
